Laboratory results as given in US20120028271A1.

B1: GST-UbL-A^1-78 (UbL domain of hHR23A ending in Val-Val-Val-Met-Val-Thr-Lys) (protein, not shown: a dimerising Fc or GST)
chain: MAVTITLKTLQQQTFKIRMEPDETVKVLKEKIEAEKGRDAFPVAGQKLIYAGKILSDDVPIRDYRIDEKNFVVVMVTK

Tests used:
[1] = molecular target: proteasome of mammalian cell and human tissue extracts (detected through Rpt1, Rpn2, Rpn1 and 20S alpha subunits and chymotryptic activity) (human); experiment: GST pull-down from cell extracts, co-purified chymotryptic activity standardized to UbL-A, 14 measurements
[2] = molecular target: proteasome of mammalian cell and human tissue extracts (detected through Rpt1, Rpn2, Rpn1 and 20S alpha subunits and chymotryptic activity) (human); experiment: GST pull-down from cell extracts, co-purified chymotryptic activity, 5 measurements

Chain of proteasome of mammalian cell and human tissue extracts (detected through Rpt1, Rpn2, Rpn1 and 20S alpha subunits and chymotryptic activity) (human) (P35998 2-433, form in doubt, chain 1 of 2): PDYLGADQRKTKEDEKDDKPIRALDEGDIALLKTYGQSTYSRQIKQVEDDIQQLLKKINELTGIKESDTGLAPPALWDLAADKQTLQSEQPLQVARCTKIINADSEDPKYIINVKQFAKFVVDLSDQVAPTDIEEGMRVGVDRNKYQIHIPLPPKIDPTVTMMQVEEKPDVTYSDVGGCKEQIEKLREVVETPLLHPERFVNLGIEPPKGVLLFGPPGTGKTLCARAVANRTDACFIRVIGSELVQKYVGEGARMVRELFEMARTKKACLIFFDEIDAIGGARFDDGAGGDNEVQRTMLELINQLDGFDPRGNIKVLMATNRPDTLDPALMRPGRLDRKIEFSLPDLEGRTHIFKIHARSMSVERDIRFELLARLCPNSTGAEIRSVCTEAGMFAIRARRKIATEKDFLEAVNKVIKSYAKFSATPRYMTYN
Chain of proteasome of mammalian cell and human tissue extracts (detected through Rpt1, Rpn2, Rpn1 and 20S alpha subunits and chymotryptic activity) (human) (B8ZZH9 whole entry, form in doubt, chain 2 of 2, further chain): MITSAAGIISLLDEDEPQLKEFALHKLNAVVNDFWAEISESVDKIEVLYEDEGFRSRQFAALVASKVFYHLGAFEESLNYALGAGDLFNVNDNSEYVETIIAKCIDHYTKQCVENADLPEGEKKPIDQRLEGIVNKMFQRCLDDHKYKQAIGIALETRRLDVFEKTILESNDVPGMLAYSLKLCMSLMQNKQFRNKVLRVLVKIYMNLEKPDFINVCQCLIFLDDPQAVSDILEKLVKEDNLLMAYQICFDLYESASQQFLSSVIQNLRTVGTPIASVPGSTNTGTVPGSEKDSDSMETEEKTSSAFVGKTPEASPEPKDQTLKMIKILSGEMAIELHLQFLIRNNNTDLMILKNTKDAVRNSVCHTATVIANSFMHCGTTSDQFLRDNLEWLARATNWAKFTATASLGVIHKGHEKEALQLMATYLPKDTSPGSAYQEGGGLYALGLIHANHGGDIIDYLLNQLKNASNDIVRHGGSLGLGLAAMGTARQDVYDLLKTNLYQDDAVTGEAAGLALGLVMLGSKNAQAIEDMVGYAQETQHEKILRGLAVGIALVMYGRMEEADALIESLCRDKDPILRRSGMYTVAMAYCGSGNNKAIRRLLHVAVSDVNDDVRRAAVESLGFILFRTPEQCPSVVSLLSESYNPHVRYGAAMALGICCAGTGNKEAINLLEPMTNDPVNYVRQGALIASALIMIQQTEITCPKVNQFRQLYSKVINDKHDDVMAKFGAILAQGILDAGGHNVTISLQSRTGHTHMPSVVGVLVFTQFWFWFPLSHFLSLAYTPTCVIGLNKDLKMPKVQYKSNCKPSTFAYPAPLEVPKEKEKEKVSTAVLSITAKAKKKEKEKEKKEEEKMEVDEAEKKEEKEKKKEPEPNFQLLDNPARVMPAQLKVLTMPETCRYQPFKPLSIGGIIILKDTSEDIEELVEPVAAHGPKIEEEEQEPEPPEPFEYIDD

Molecule | fold proteasome purified (chymotryptic activity) relative to UbL-A [1] [fold] | fold increase of proteasome interaction / associated chymotryptic activity relative to UbL-A^1-79 [2] [fold]
GST-UbL-B (UbL domain of human hHR23B, residues 1-78) (from UniProt P54727 1-78) | 2.94 | 
B1 |  | 2.5
